Assay: label from the status in PepcDB records

Sequence	protein production
MKKYILIGLGGAIGAILRCFIRNTKIPVYKGEFPISTLMINLSGAFILAVILITANEIWSFNEEIRLGIATGFVGAYTTFSTMCKETIILMNKNLYFLAFCYVTVSVVFGLLFAYFGALSARKILSRLLKVRKEDEKAS	failed
MSFSYGLAVPFVPTLVLLPQTSAAHVQRIRGGNILSLIDQPPPVVPTLTPPPQQARSGIRINKVTSSYAGLLTSVKEAGLLERCRRDYLLLLTLLVIAGAGVLVAFFFVGDSWLQLVVAAALGIVFTQFALFGHEAAHQQVFTSRAANEWAARLIATLMVGMSYAYWTDKHSRHHARPNVVNRDPDIAPGAIVFHNEVPTNRGRFSRAYGKRQGYLLFPLLLFLGWTLHIDSLKYLLKRGPVKFRWLELGLLGVRFGTYIGLLFLVLSPGIAVAFIGVQVAVFGLYMGGTFAPNHKGMPILPADSRADFLSRQVLTSRNITGGGFVTFLMGGLNYQIEHHLFPDMPRRHLREASQLVKAHCVRTGIPYTETSLMRSYSIVIRYLNTVGLAAADPFTCPLAGQHRP	failed
MSLKKLLLLLIIVALFISAFAFDLTQYLSLDVLKEKQQQLNQLFVDYPFQVFAIYFVVYVASTALSLPGATILTLGAGAIFGLGWGLLLASFAASLGAFLAFLSARFILHDWVQEKFGDRLTAINRGMERDGAFYLLSLRLVPLFPFFVINLVMGLTKIKAWTFYWVSQVGMLLGTAVYVNAGTQLAQISSLGDVISADLIGAFVLLGIFPLIAKAVLAFVKRRKAFKGYKKPKSFDNNLVVIGAGSAGLVSAYIAATVKAKVTLIEKHKMGGDCLNTGCVPSKALLHVAELAHNARNASSAGVHVGEVSVDFKQVMQQVKSVIKDIEPHDSVERYTKLGVDVEQGDARIVSPWEVEVTSNVEGKSETKRITTRSIIIATGAKPLVPDFEGLDKVDYLTSDTLWELDELPKRLLVLGGGPIGCELSQAFQRLGSQVTQVEMAERLMGPEDADTVELLTRRLTAEGIDIRLNHKALRFEQHNGESVLIAEQTVDNESVDNQNADQSKDVEIPFDKVLIALGRQPNITGFGLEELGVQTNKTVSTNELLQTNFPNIYACGDVAGPYQLTHVASHQAWYASVNALFDPFKTFRADYSVIPWVTYTSPQVANVGLTEQQAKKADKPYEVTEYDIGELDRAIADDSAYGRVKVLTKPGKDELLGVNIVGPQAGELLAEYVLAMKYGIGLNKILGTIHSYPTLAEANKYVAGEWKRANAPQKLLTWVEKFHRWRRS	failed
MKFLRLLKHPASTAPGRAFQLYPWQERIVRAIYGPRHPDGSRIVKTVFLLVPRGNRKTSLAAALALLHTLGPERVPAGQVIFAACDREQAGIGFREAANIIRADKRLVAATRIYDAHNSAKKIVFRAEDVTLSAISSDGGAQHGRTPAFTLIDELHAWKGRDLWEALKSGTAKVADSLTVIATTAGRGADTVAAEQYAYALAVARGEIVNPAFLPILFAPEPGDDWTDEATWHKVNPGLRHGFPSLEGLRTLAKEAEGRPSDAYAFRQFNLNEWMANSRDPLFDFDTYDARRFAEDLDELEGLPCWIGVDLSISGDLSAVVAAWKHPDGQISVKPWFWVPGDDLKVRADRDGVPYERWRDEGHLIATPGAIIDQSAVADQIRELCARFDAQEVAFDPHLARPMMQSLYDEGLPVVEMRQAPLTMGVAAGDLERVVNGRLIRHDGHPVLRNHLQNVCASRSESGLIRMHKVQRTSRIDGAVAAAMAVSRAVAADSRKSAYSDPEAEGLFVF	failed
MKPIDEELLLEQLIDNVKNCKDLEAAKALLFEICGHDAILEKAVDYCIFCHEGQFRKSGEPYAVHPILVATLVGFLSENKSNILAALLHDVIEDTNCTEEELREQFGSEVLKLVLGLTKIIEIREDNLISSKSKKSLTKSALTFRNMLLASIEDVGVLIVKLCDRLHNMLTLDILREDKQKRISEETLVVYAPIAHRLGISSIKNYLEDLSFKYLMPDEYKLIDNYINSNNQEMQLGLNEFISKIELLFLSNGFRQGSFEIQKRIKHSYSIYLKMQRKGIGIEEVLDLLGVRILVEKVSDCYLALGILHTHFNPLVSRFKDYIALPKQNGYQTIHTTLFDAKSIIEAQIRTFDMHKIAEFGIAAHWKYKEDGSVVAPRLDWLTDISMQSINNLENAEDYNAIELYEYAKDSLYVEDVAVYSPKGEIFTLPRGATVLDFAYEVHTKVGLHAKSAYVNRIKVPLLTELKNGDIVRVVTSNDKFYRCSWIDSVKTGKAKASIREFCKQKIREINLASSINMLSFIFGVDKNRIETWIEKENLVRRIRQVATDSAYLKDIVNGLKKYAKKSYWFDKYEIKEQKIGNFTLYCNHKIANVDFDFCCHPKRGDAVLAFVKGGNAIVHHKLCDRADKMIDNNQDMVFIKWDSNIPKSYKLIFSLENKKGVLAEFLAFLAKMQINLLTINLSSDLNSAVDYFEITMEIPDNINPDSVKDRLKSRCKILDFTSLNDAYKES	failed
GMTGFVINTRRAPFDDWRLREALLLAFNFEFINDTVTGGVMPRITSYFSGTDLAYRPGTASGREAELLAPFAADLPPGTLEGYALPQGDGTARNRTNLRRAAQFLEQAGFRIEQGQLLGPDGAPLALRFLLRQGDSDMQTVLEIYTRALERLGIAAQIEKVDNAQYTARVAELDFDLTPFRRDLSLSPGNEQRLYWGSHSAGQPGTRNLMGAASPAIDAMIDRMLAATTEDELTAATRALDRVLTAGRYVIPIWR	not failed
AEVDQATKPAEAKYYIAGTITDATTGQELTTAKVTLGDKSVTSSFNEQVNYKAEGYALVVSADGYYPVKRQVYLNQVSDGQTSVATVNVALVSVEAAVIPPVVPPTDPETDINEGEATKVADKAVEVAKPSESTVTDMLAGTTATPEEKKALDETLEMAGGMKVGETTPEVLADGSILAITPVKFTNPIQDAPAMVPYFYNEGCELTGDVKEVAAPVTRADGAVAADIQKAFLSNAAKALNMNAGFVQKIGYTRISVLNGYSILGYTIKGQLVSKKLTFLISGKYYEGIVSYQKSVMIYPNYYSHDSHDSHDSHGFNPNAGGGSND	not failed
MENDSSIQWEHSHDFGLDNKLHENKVKTVFWLTTVIMVLEIGAGTWSGSMALLADGWHMGTHSAAFLIAIFAYSYAKKHANNKDFSFGTGKVNSLGGFASAIALAIVALMMIVESVQRLLEPQSIHFNEAIVVAIIGLVVNVASVFILHDDHHHHGEHHHDHDHNMKAAYFHVLADTLTSLLAIVALLIGKYVGLIWMDPLMGIVGAIVILRWSYGLIKDSSNVLLDKSVKKSTLEQISKALSKKNTVINDIHVWTIATAHQAAILKVTSAQPLNSDEYEGILREILPQLSHISIEIRHDYSL	failed
APIKGVTFGEDTVWEVQGYKNVRITFELDERVDKVLNEKCSVYTVESGTEVTEFACVVAEAVVKTLQPVSDLLTNMGIDLDEWSVATFYLFDDAGEENFSSRMYCSFYPPDE	not failed
MTPASAVPAHPCPPGPNALRRRLLQAALSTGVLASIGTAAPAAASAHATSTPSKPMDLYAYVGSRTTRERNARGDGISVFRVDTQTGGLAPVQLVKDLVNPSFLALNPAGDRLYTVHGDLADISAFAVDRASGRLSFINRQSTQGKNPVHLALDPSGRFVVVTNHIGASLAVLPLAADGALGEVTQLVKLDGPIGPHRIEQKQAKPHFNRFDPAGRFVIVPDKGLDRTFAFRFAEGRLTPATPSFVSAREGAGPRHVAFRPDGRVAYVVNELDSTVTTYGYDAGTATLTPLQVLPSLPDTFTGNSRASEIKVDAAGRFVYASNRGHDSIAVFRIDAASGLLRFVAAEPSLGRTPRFFTIAPGGRFLYALNEDSDSIVAFAIDPHTGRLHPTGTRAQSGSPVCMVFSTPAA	failed
MFKELHPNIRARILIQFLSKIIGSMIFPFMAIYFSMEINSKVAGILLMINVLAQFLAGMYGGHLADIIGRKKLMVAGELLKVFAFLGMVLCNSPVFHSPWITFVMLLLIGVAQGLINPAGEAMLIDVSTPENRSFMYSVSYWANNLSMMIGIIVGGWFFIDYLFPLLVALFIMSFVTAWLTISLISETLKQKAVLKKGSYGLVGMLKNYGQVLHDCRFLLYTLGGIAVMSIEFQRSNYISVRLAEDFQALLVHFGPLGNITLNGVQIVSVLTAVNTLFIVLFTVPVARFVTKRAQQPIMYVGFTLFAIGFAVCAFANNLAVLLLATAVLSIGELLYVPTRQTILAAIVDDNRRGAYMAFNGIIFQIGKMIGSVSLVFAPFIGKYGMATFTILLGVLSIVFSAAALKSGWKKVLAK	failed
MSILVIGANGGVGSKLVSQLNEEHVDFTAGVRKEDQVKELENKGIKATLIDVEKNSINDLKNIFTDYDKVIFSVGSGGSTGADKTIIVDLDGAVKTIKASKEAGIKHYVMVSTYDSRREAFDASGDLKPYTIAKHYADDYLRTSDLNYTIVHPGSLTDDAGTGKIEADLYFDKAGSIPREDVATVLKEVVTSDGFNNQEFQILSGNHGVKDALKNYESLEHHHHHH	not failed
SQLINLPMDQILYLSTSDIKHHVHLQTIHTLMDIRANLADFKKIHKKLYPCHRSYIVNTDMIISVNKTNYEATLINGQVLPVSRMKIGKIAQIVEERGR	not failed
MYREFYGLTEKPFSKTPDPRYLFLSRGHREALARLQYAVEERELALLTGDIGCGKTTISRALMDAVGNDGCFCFIVNPRLSAVEFLRTVARSLGIAEPAAAKDELLRQLTEAVYRLEGEKRCPVIIIDEAQLIPDQEVFDEIRLLTNFQLDDRNLMSVILMGQPELRQILSEPAHEALRQRIAMHYHLQPLSLEETLEYVDFRVEVAGGPQGLFSPDAIRRIYELSGGVPRKINILATNALLVGFGKDSAWIDASLVEELRDEASLYLEHHHHHH	failed
MSLEFFMAKADNPAFEQGQSPRMRLPDSVPLLIVGGGIMGLWAAVKAERLGIGTLLVEAGRLGGGASGGLLGALMPHMPDRWSDKKQFQFDALVALEAEIAGLEAETGLSGGYRRCGRIIPLPKPHLRGIAERHERDAAENWRSGERRFQWHVGERPSVAGWVDDAAGEAGFVFDTLAARVSPRALIALLSAFLRKARHVQVAEGCRVVSLDADAGRAALSSGEEISFGHVVVANGHESFPLIRDALGLEAGVALGQAVKGQAALLDASADPAMPVVFLNGLYIVPHEDGTVAIGSTSEDCFSEPFSTDEKLEKLLVDACTVVPSLAGAPVLERWAGLRPKAVGRDPMVGAMAGTAKLVALSGGFKVSFGLAHFLADAALETVCGHTPVIPSGFRLQEHVSIAVPDFRKFLEHHHHHH	failed
MVDSHVHTPLCGHAEGHPEAYLEEARAKGLKGVVFTDHSPMPPWYDPESRMRLEALPFYLLALERVRERAQDLYVGIGLEADFHPGTEGFVAQLLRRYPFDYVIGSVHYLGAWPLDHPDHQEEYAWRDLKEVFRAYFQEVEKAARSGLFHAIGHLDLPKKFGHRLPEEALLELAEPALRAVAEAGLFLDVNTAGLRRPAKEVYPAPALLRRARELGIGLVLGSDAHRPEEVGFAFPEVQALLAGLGFREAYYFVEGSPVAYPLSRASLEHHHHHH	not failed
MEYYFTAQKLAVGYDNRPLIENIDFSLKRGEILTLIGPNGAGKSTILKSIARQLSLVSGTIYLDKSDVVTMNGNEFAKKMAVVLTDKLKTELMTCYDVVATGRYPYTGRFGVLSDEDKKAVDEAMELVNVSQIKDKDFTKISDGQRQRVMLSRAICQQPEIIVLDEPTSYLDIKYKLEFLSILQRLKRQKNLTVIMSLHELDMAKRVSDHILCIDGRYVDRYGTPEEVFTDQYVSGLFGITAGSFDETGEDLELEKPDGSARIFVIAGGGLGRKSFRSLQRKGIPFATGIIYENDLDYPAAKALSAEIVSARSFEPVDDALIEKAKELIDACEGVICDRTEFGTYEQFNSRLYEYAVSTGKIIKIPFLEEQLAQL	failed
MEQYKLVLEGAKQLKWETNEIKDIQDDEIIVKTIAGSISIGAELPQYNGSDVTDPHPFYPRKTGYESYGEVIEVGNQVTHVNVGDKVVSFYGHETIGIVKAHKVIRVPSSIQPKIALLSILSCDAAKGVLKLNPRQDEKVLIIGMGVIGLLACYFLKYYVGIEHVDVVEPNKNRRDFAKKFGTKNIYDSEEKIIETYNYGFECSATNSGFHTLQKALKTNGKICILSDGNIEELTLTANFYQKELQIIGSSDGYDYQKHADWFFEEIGKTPFIEEIFQHEIHYTSLIQCFDELSLGIIKPLKVYVSYE	failed

Reference: a protein production outcome set (Wang et al. 2014)
